This is an account of results in article PMC5519978 (2017).

T1: hBRM-A AT-BRD (AT-hook and bromodomain of human BRM, long isoform, residues 1358-1508) (human, UniProt P51531 1358-1508, 15N-labelled)
T1 chain: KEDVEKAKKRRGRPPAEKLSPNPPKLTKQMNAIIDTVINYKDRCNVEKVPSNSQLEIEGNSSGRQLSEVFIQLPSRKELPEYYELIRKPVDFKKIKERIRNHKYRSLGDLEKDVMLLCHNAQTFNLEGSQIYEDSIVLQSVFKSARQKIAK

T2: BRG1 AT-BRD (AT-hook and bromodomain of human BRG1, residues 1434-1569), wild type (human, UniProt P51532 1434-1569)
T2 chain: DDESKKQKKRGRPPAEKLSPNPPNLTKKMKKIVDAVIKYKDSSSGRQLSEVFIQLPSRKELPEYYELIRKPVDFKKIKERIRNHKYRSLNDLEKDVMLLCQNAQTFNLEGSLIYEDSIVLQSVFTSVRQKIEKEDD

T3: hBRM-B AT-BRD (AT-hook and bromodomain of human BRM, short isoform, residues 1358-1399 and 1418-1508) (human, UniProt P51531 1358-1399; P51531 1418-1508, 15N-labelled)
T3 chain: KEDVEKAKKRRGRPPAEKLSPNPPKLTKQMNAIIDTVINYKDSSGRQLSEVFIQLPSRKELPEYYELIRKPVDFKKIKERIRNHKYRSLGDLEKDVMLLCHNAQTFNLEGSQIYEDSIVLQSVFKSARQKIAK

T4: hBRM-A BRD (human BRM bromodomain, long splice isoform, residues 1379-1508) (human, UniProt P51531 1379-1508, 15N-labelled)
T4 chain: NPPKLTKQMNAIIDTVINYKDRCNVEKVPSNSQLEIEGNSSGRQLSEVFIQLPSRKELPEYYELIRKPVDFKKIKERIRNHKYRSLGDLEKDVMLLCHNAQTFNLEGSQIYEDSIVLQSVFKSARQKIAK

B1: hBRM-B BRD (human BRM bromodomain, short splice isoform, residues 1379-1399 and 1418-1508) (domain or fragment)
chain: NPPKLTKQMNAIIDTVINYKDSSGRQLSEVFIQLPSRKELPEYYELIRKPVDFKKIKERIRNHKYRSLGDLEKDVMLLCHNAQTFNLEGSQIYEDSIVLQSVFKSARQKIAK
modifications: 15N-labelled

No end group written: not given here.

Experiment [1] concerns the target B1. As to the kind of experiment: NMR.
The target in experiment [2] is T1, hBRM-A AT-BRD (AT-hook and bromodomain …). As to the kind of experiment: NMR.
Experiment [3] concerns the target T2, BRG1 AT-BRD (AT-hook and bromodomain of …). Description: NMR.
For experiment [4], the target named is T3, hBRM-B AT-BRD (AT-hook and bromodomain …). Description: NMR; Kd,obs, AT-BRD pre-bound to DNAI.
Experiment [5] has the same target. As to the kind of experiment: NMR; pre-bound to DNAI.
For experiment [6] the target is unchanged. Description: NMR.
The target in experiment [7] is T4, hBRM-A BRD (human BRM bromodomain, long …). As to the kind of experiment: NMR.
In the next experiment the target is H3(23-34). Description: NMR.

The Kd is the free concentration of one partner at which half of the binding sites on the other are occupied at equilibrium, for simple one-to-one binding. High values mean a looser complex, low ones a tighter complex. Regarding QTARKSTGGKAPRKQLATK [H3(5-23) histone peptide, unmodified], the Kd in experiment [1] is greater than 7000 µM.
On to KAARK(Ac)SAPATGG [H3(23-34)K27ac histone peptide], for which the Kd in experiment [2] was greater than 35000 µM; in experiment [1], greater than 7000 µM; in experiment [3], greater than 3000 µM.
In experiment [1], KQLATK(Ac)AARKS [H3(18-28)K23ac histone peptide] yielded a Kd of 3500 µM.
With KSTGGK(Ac)APRKQ [H3(9-19)K14ac histone peptide], the Kd in experiment [4] was 1120 µM; in experiment [5], 1120 µM; in experiment [6], 760 µM; in experiment [2], 810 µM; in experiment [7] it was 880 µM; in experiment [3] it was 940 µM.
As for AKRHRK(Ac)VLRDN [H4(15-25)K20ac histone peptide], the Kd in experiment [1] was determined as 2400 µM.
In the experiment with H3(23-34), B1 displayed a Kd greater than 16000 µM.
